From PMC9210341

What was measured:
Test in all cases: SPR
[1] = biological target: equine angiotensin converting enzyme 2 (residues 19-615) (horse (equine))
[2] = biological target: SARS-CoV-2 Beta variant receptor binding domain (residues 319-541) (SARS-CoV-2 (Beta variant)) (UniProt P0DTC2)
[3] = biological target: SARS-CoV-2 Delta variant receptor binding domain (residues 319-541) (SARS-CoV-2 (Delta variant)) (UniProt P0DTC2)

Row | Substance | fold lower affinity than hACE2 with the SARS-COV-2 PT-RBD [1] [fold] | fold decrease in affinity against the SARS-CoV-2 PT-RBD [2] [fold] | fold decrease in affinity against the SARS-CoV-2 PT-RBD [3] [fold]
1 | SARS-CoV-2 prototype receptor binding domain (residues 319-541) (from UniProt P0DTC2 319-541) (domain or fragment) | 32.2 |  | 
2 | equine angiotensin converting enzyme 2 (residues 19-615) (from UniProt A0A9L0TPT7 19-615) (receptor) |  | 4.1 | 2
